In patent US20220348647A1 (published 2022):
Changes are numbered by the printed parent chain. Numbers in names are those of the source.

T1: human CCL17 (human, UniProt Q92583 24-94)
T1 sequence: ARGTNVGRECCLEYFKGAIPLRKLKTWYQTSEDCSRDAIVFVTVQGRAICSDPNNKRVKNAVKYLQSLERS

T2: cyno CCL17 (Macaca fascicularis (cyno), UniProt Q8HYP9 24-94 (rhesus entry))
T2 sequence: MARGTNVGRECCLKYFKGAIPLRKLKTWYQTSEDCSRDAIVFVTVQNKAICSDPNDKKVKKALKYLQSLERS

B1: C17B302 (antibody, human IgG2, kappa, V domains shown)
VH: EVQLVQSGAEVKKPGESLKISCKGSGYSFTSYWIGWVRQMPGKGLEWMGIIDPSDSDTRYSPSFQGQVTISADKSISTAYLQWSSLKASDTAMYYCARVGPADVWDAFDYWGQGTLVTVSS
VL: DIVMTQSPDSLAVSLGERATINCKSSQSVLLSFDNINKLAWYQQKPGQPPKLLIYDASTRESGVPDRFSGSGSGTDFTLTISSLQAEDVAVYYCQQFYSVPSTFGQGTKVEIKR
B2: C17B311 (antibody, V domains shown)
VH: B1 VH
VL: DIVMTQSPDSLAVSLGERATINCKSSQSVLLSFDNINKLAWYQQKPGQPPKLLIYDASTRESGVPDRFSGSGSGTDFTLTISSLQAEDVAVYYCQQFYSVPSTFGQGTKVEIK
B3: C17F24 (parent) (antibody, V domains shown)
VH: B1 VH with A107S
VL: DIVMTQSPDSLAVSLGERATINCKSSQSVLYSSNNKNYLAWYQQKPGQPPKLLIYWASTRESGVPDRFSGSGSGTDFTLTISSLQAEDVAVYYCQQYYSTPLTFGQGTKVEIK
B4: C17B243 (antibody, V domains shown)
VH: B1 VH with A107S
VL: B2 VL with L31N, I36K, K38D, D56E, F97H, Y98W, S99Q, V100T, S102L
notes: Full IgG1, kappa
B5: C17B240 (antibody, V domains shown)
VH: B1 VH with A107S
VL: B2 VL with L31Y, F33H, D34V, I36Y, K38A, D56N, F97Y, S99T, V100L, S102A
notes: Full IgG1, kappa
B6: C17B257 (antibody, IgG1, V domains shown)
VH: B1 VH with A107S
VL: B2 VL with D56A
notes: Expressed as IgG1; Light chain N50A (Kabat) variant of C17B234
B7: C17B239 (antibody, V domains shown)
VH: B1 VH with A107S
VL: B2 VL with L31S, D34T, I36T, K38T, D56H, F97Y, Y98L, S99I, V100Y
notes: Full IgG1, kappa
B8: C17B241 (antibody, V domains shown)
VH: B1 VH with A107S
VL: B2 VL with L31N, D34T, I36N, K38A, D56E, F97T, Y98N, V100I, S102L
notes: Full IgG1, kappa
B9: C17B258 (antibody, IgG1, V domains shown)
VH: B1 VH with A107S
VL: B2 VL
notes: Expressed as IgG1; Light chain N50D (Kabat) variant of C17B234
B10: C17B263 (antibody, IgG1, V domains shown)
VH: B1 VH with A107S
VL: B2 VL with D56T
notes: Expressed as IgG1; Light chain N50T (Kabat) variant of C17B234
B11: C17B238 (antibody, V domains shown)
VH: B1 VH with A107S
VL: B2 VL with L31I, F33A, D34F, I36Q, K38P, F97Y, Y98Q, S99F, V100I, S102F
notes: Full IgG1, kappa
B12: C17B235 (antibody, V domains shown)
VH: B1 VH with A107S
VL: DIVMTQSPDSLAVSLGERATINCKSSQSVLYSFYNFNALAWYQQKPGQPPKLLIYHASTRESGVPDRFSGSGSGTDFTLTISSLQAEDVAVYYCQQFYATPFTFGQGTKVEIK
notes: Full IgG1, kappa
B13: C17B237 (antibody, V domains shown)
VH: B1 VH with A107S
VL: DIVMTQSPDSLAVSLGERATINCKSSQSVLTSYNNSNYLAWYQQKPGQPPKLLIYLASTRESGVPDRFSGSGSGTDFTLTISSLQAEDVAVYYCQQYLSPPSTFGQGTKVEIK
notes: Full IgG1, kappa
B14: C17B294 (antibody, IgG1, V domains shown)
VH: B1 VH with A107T
VL: B2 VL
notes: Expressed as IgG1; Heavy chain S100cT (Kabat) paired with the light chain of C17B258
B15: C17B244 (antibody, V domains shown)
VH: B1 VH with A107S
VL: B2 VL with L31S, F33I, D34T, I36V, K38D, D56T, F97Y, S99H, V100D, S102F
notes: Full IgG1, kappa
B16: C17B260 (antibody, IgG1, V domains shown)
VH: B1 VH with A107S
VL: B2 VL with D56G
notes: Expressed as IgG1; Light chain N50G (Kabat) variant of C17B234
B17: C17B262 (antibody, IgG1, V domains shown)
VH: B1 VH with A107S
VL: B2 VL with D56S
notes: Expressed as IgG1; Light chain N50S (Kabat) variant of C17B234
B18: C17B242 (antibody, V domains shown)
VH: B1 VH with A107S
VL: B2 VL with L31F, F33H, I36L, K38T, D56H, F97Y, S99A, S102Q
notes: Full IgG1, kappa
B19: C17B264 (antibody, IgG1, V domains shown)
VH: B1 VH with A107S
VL: B2 VL with D56I
notes: Expressed as IgG1; Light chain N50I (Kabat) variant of C17B234
B20: C17B293 (antibody, IgG1, V domains shown)
VH: B1 VH
VL: B2 VL
notes: Expressed as IgG1; Heavy chain S100cA (Kabat) paired with the light chain of C17B258; also called C17M293
B21: C17B295 (antibody, IgG1, V domains shown)
VH: B1 VH with D106E, A107S
VL: B2 VL
notes: Expressed as IgG1; Heavy chain D100bE (Kabat) paired with the light chain of C17B258

Assays:
human CCL17 [1] = target: T1, human CCL17; assay: cell-based or functional assay
cyno CCL17 [2] = target: T2, cyno CCL17; assay: cell-based or functional assay
human CCL17 [3] = target: T1, human CCL17; assay: cell-based or functional assay; remark: listed apart in the source
cyno CCL17 [4] = target: T2, cyno CCL17; assay: cell-based or functional assay; remark: listed apart in the source
human CCL17 [5] = target: T1, human CCL17; assay: solution equilibrium affinity (MSD-SEA), TBST, 48 h at 4 °C
Description: (§1) Equal volumes of the anti-hCCL17 mAbs at 40 pM or 200 pM were added to each chemokine dilution to obtain mixtures containing the serial dilution of chemokines starting at a final concentration of […] and a constant concentration (20 pM or 100 pM) of anti-CCL17 antibody. The mixtures were prepared in duplicate and incubated at 4° C. for 48 hours to reach equilibrium. The free antibody was detected using a SECTOR Imager 6000 (Meso Scale Discovery) instrument. The resulting binding curves were fitted to obtain the dissociation equilibrium constant (KD) using the GraphPad Prism software (v 5.01) using a 1:1 binding model to perform nonlinear least-square regression analysis of the data.

cyno CCL17 [6] = target: T2, cyno CCL17; assay: as above
Description: as §1

human CCL17 [7] = target: T1, human CCL17; assay: MSD-SEA; affinity for human CCL17 against that for cyno CCL17
Description: as §1

human CCL17 [8] = target: T1, human CCL17; assay: not stated in the legend (affinities by MSD-SEA in Examples 3 and 4)
human CCL17 [9] = target: T1, human CCL17; assay: solution equilibrium affinity (MSD-SEA), IgG1
Description: as §1

cyno CCL17 [10] = target: T2, cyno CCL17; assay: solution equilibrium affinity (MSD-SEA), IgG1
Description: as §1

Binder | IC50 (nM), calcium flux assay in CCRF-CEM cells, 10 ng/ml human CCL17 (human CCL17 [1]) [nM] | IC50 (nM), calcium flux assay in CCRF-CEM cells, 5 ng/ml cyno CCL17 (cyno CCL17 [2]) [nM] | IC50 (nM), β-arrestin assay, Hek293 cells co-expressing CCR4, 20 nM CCL17 (human CCL17 [3]) [nM] | IC50 (nM), β-arrestin assay, Hek293 cells co-expressing CCR4, 20 nM CCL17 (cyno CCL17 [4]) [nM] | Kd (human CCL17 [5]) [nM] | Kd (cyno CCL17 [6]) [nM] | Fold binding human/cyno CCL17 (human CCL17 [7]) [fold] | Kd (human CCL17 [8]) [nM] | Kd (human CCL17 [9]) [nM] | Kd (cyno CCL17 [10]) [nM]
B1 | 0.593 | 0.238 | 13.9 | 13.4 | – | – | – | – | – | –
B2 | 0.553 | 0.239 | 10.7 | 10.3 | – | – | – | – | – | –
B3 | – | – | – | – | 1 | – | – | – | – | –
B4 | 0.231 | 0.31 | – | – | 0.028 | 0.677 | 24.2 | ≤ 100 | – | –
B5 | 0.405 | 0.308 | – | – | 0.083 | 4.6 | 55.4 | ≤ 100 | – | –
B6 | – | – | – | – | – | – | 656 | – | 0.0001 | 0.0656
B7 | 0.427 | 0.43 | – | – | 0.092 | 0.63 | 6.8 | ≤ 100 | – | –
B8 | 0.456 | 0.339 | – | – | 0.05 | 0.583 | 11.7 | ≤ 100 | – | –
B9 | – | – | – | – | – | – | 416 | – | 0.0001 | 0.0416
B10 | – | – | – | – | – | – | 756 | – | 0.0001 | 0.0756
B11 | 0.387 | 0.348 | – | – | 0.115 | 1.46 | 12.7 | – | – | –
B12 | 0.558 | 0.919 | – | – | 0.072 | 9.5 | 132 | ≤ 100 | – | –
B13 | 0.882 | 0.549 | – | – | 0.657 | 3.07 | 4.7 | – | – | –
B14 | – | – | – | – | – | – | 22 | ≤ 100 | 0.001 | 0.022
B15 | – | 0.311 | – | – | 0.033 | 0.565 | 17.1 | ≤ 100 | – | –
B16 | – | – | – | – | – | – | 72.8 | – | 0.0005 | 0.0364
B17 | – | – | – | – | – | – | 185 | – | 0.0003 | 0.0555
B18 | 0.483 | 0.34 | – | – | 0.167 | 0.384 | 2.3 | – | – | –
B19 | – | – | – | – | – | – | 180 | – | 0.0004 | 0.0718
B20 | – | – | – | – | – | – | – | ≤ 100 | < 0.0001 | 0.039
B21 | – | – | – | – | – | – | 171 | – | 0.175 | 29.9
